{"source": "paper PMC4764120", "about": "“Crystal Structure of Alcohol Oxidase from Pichia pastoris” (PLoS ONE, 2016)", "proteins": {"B1": {"name": "alcohol oxidase AOX1 from Pichia pastoris (enzyme, UniProt P04842 1-663, looked up)", "chain": "MAIPEEFDILVLGGGSSGSCIAGRLANLDHSLKVGLIEAGENNLNNPWVYLPGIYPRNMKLDSKTASFYTSNPSPHLNGRRAIVPCANVLGGGSSINFMMYTRGSASDYDDFQAEGWKTKDLLPLMKKTETYQRACNNPDIHGFEGPIKVSFGNYTYPVCQDFLRASESQGIPYVDDLEDLVTAHGAEHWLKWINRDTGRRSDSAHAFVHSTMRNHDNLYLICNTKVDKIIVEDGRAAAVRTVPSKPLNPKKPSHKIYRARKQIVLSCGTISSPLVLQRSGFGDPIKLRAAGVKPLVNLPGVGRNFQDHYCFFSPYRIKPQYESFDDFVRGDAEIQKRVFDQWYANGTGPLATNGIEAGVKIRPTPEELSQMDESFQEGYREYFEDKPDKPVMHYSIIAGFFGDHTKIPPGKYMTMFHFLEYPFSRGSIHITSPDPYAAPDFDPGFMNDERDMAPMVWAYKKSRETARRMDHFAGEVTSHHPLFPYSSEARALEMDLETSNAYGGPLNLSAGLAHGSWTQPLKKPTAKNEGHVTSNQVELHPDIEYDEEDDKAIENYIREHTETTWHCLGTCSIGPREGSKIVKWGGVLDHRSNVYGVKGLKVGDLSVCPDNVGCNTYTTALLIGEKTATLVGEDLGYSGEALDMTVPQFKLGTYEKTGLARF", "notes": "Alcohol oxidase AOX1, Pichia pastoris, UniProt P04842, 663 residues as printed; identified by mass spectrometry as the host's own protein; the final crystallographic model holds residues 2 to 663 of each monomer; No tag: the protein comes from the expression host itself; also called methanol oxidase AOX1"}}, "target": "the molecule itself", "assay": "crystal structure; X-ray, 2.35 Å, space group P21, eight monomers in the asymmetric unit; crystals grown at 4°C in 100 mM HEPES pH 7.5, 200 mM CaCl2, 33.3% PEG 400; interfaces analysed with PISA", "data": [{"protein": "B1", "values": [{"measurement": "stoichiometry N", "result": 8}]}]}
